Experimental data taken from PMC7498345 (Nucleic Acids Research, 2020).

Experiments:
GST-PHF6 WT = GST-PHF6 WT (UniProt Q8IWS0); assay: MST
[1] = system: H2BK120 of H2B WT-containing mono-nucleosomes; assay: In vitro ubiquitination assay, H2B-Flag WT mono-nucleosomes; type: biochemical; conditions: GST-PHF6 WT/MTs as E3; E1, E2, ubiquitin, 50 μM ZnCl2; 37°C, 1 h

Molecule: H2B peptide (1:20) with K12Ac modification
- fold higher affinity than for the H2B WT peptide (GST-PHF6 WT): 5 fold

B1: PHF6 WT: PHF6 WT expressed as GST fusion protein in E. coli Rosetta (DE3) cells (protein)
chain: MSSSVEQKKGPTRQRKCGFCKSNRDKECGQLLISENQKVAAHHKCMLFSSALVSSHSDNESLGGFSIEDVQKEIKRGTKLMCSLCHCPGATIGCDVKTCHRTYHYHCALHDKAQIREKPSQGIYMVYCRKHKKTAHNSEADLEESFNEHELEPSSPKSKKKSRKGRPRKTNFKGLSEDTRSTSSHGTDEMESSSYRDRSPHRSSPSDTRPKCGFCHVGEEENEARGKLHIFNAKKAAAHYKCMLFSSGTVQLTTTSRAEFGDFDIKTVLQEIKRGKRMKCTLCSQPGATIGCEIKACVKTYHYHCGVQDKAKYIENMSRGIYKLYCKNHSGNDERDEEDEERESKSRGKVEIDQQQLTQQQLNGN
modifications: labeled with the dye NT-647 (Cy5), in the MST only; left off: GST, end not stated, kept
- E3 ubiquitin ligase activity for H2BK120 [1]: able to ubiquitinate H2BK120

B2: C82A (protein, UniProt Q8IWS0 2-365, looked up, variant C82A)
PHD finger protein 6: SSSVEQKKGPTRQRKCGFCKSNRDKECGQLLISENQKVAAHHKCMLFSSALVSSHSDNESLGGFSIEDVQKEIKRGTKLMASLCHCPGATIGCDVKTCHRTYHYHCALHDKAQIREKPSQGIYMVYCRKHKKTAHNSEADLEESFNEHELEPSSPKSKKKSRKGRPRKTNFKGLSEDTRSTSSHGTDEMESSSYRDRSPHRSSPSDTRPKCGFCHVGEEENEARGKLHIFNAKKAAAHYKCMLFSSGTVQLTTTSRAEFGDFDIKTVLQEIKRGKRMKCTLCSQPGATIGCEIKACVKTYHYHCGVQDKAKYIENMSRGIYKLYCKNHSGNDERDEEDEERESKSRGKVEIDQQQLTQQQLNGN
- E3 ubiquitin ligase activity for H2BK120 [1]: neither C82A (functional activity dead MT of extended PHD1 by disrupting Zinc ion capturing) nor E223S (H2BK12Ac unrecognizable MT of extended PHD2) were able to ubiquitinate H2BK120

B3: E223S: H2BK12Ac unrecognizable MT of extended PHD2 (protein)
chain: MSSSVEQKKGPTRQRKCGFCKSNRDKECGQLLISENQKVAAHHKCMLFSSALVSSHSDNESLGGFSIEDVQKEIKRGTKLMCSLCHCPGATIGCDVKTCHRTYHYHCALHDKAQIREKPSQGIYMVYCRKHKKTAHNSEADLEESFNEHELEPSSPKSKKKSRKGRPRKTNFKGLSEDTRSTSSHGTDEMESSSYRDRSPHRSSPSDTRPKCGFCHVGEEENSARGKLHIFNAKKAAAHYKCMLFSSGTVQLTTTSRAEFGDFDIKTVLQEIKRGKRMKCTLCSQPGATIGCEIKACVKTYHYHCGVQDKAKYIENMSRGIYKLYCKNHSGNDERDEEDEERESKSRGKVEIDQQQLTQQQLNGN
modifications: labeled with the dye NT-647 (Cy5), in the MST only; left off: GST, end not stated, kept
- E3 ubiquitin ligase activity for H2BK120 [1]: neither C82A (functional activity dead MT of extended PHD1 by disrupting Zinc ion capturing) nor E223S (H2BK12Ac unrecognizable MT of extended PHD2) were able to ubiquitinate H2BK120

B4: M125A (protein, UniProt Q8IWS0 2-365, looked up, variant M125A)
PHD finger protein 6: SSSVEQKKGPTRQRKCGFCKSNRDKECGQLLISENQKVAAHHKCMLFSSALVSSHSDNESLGGFSIEDVQKEIKRGTKLMCSLCHCPGATIGCDVKTCHRTYHYHCALHDKAQIREKPSQGIYAVYCRKHKKTAHNSEADLEESFNEHELEPSSPKSKKKSRKGRPRKTNFKGLSEDTRSTSSHGTDEMESSSYRDRSPHRSSPSDTRPKCGFCHVGEEENEARGKLHIFNAKKAAAHYKCMLFSSGTVQLTTTSRAEFGDFDIKTVLQEIKRGKRMKCTLCSQPGATIGCEIKACVKTYHYHCGVQDKAKYIENMSRGIYKLYCKNHSGNDERDEEDEERESKSRGKVEIDQQQLTQQQLNGN
- E3 ubiquitin ligase activity for H2BK120 [1]: indispensable for E3 ligase activity of PHF6

B5: R129A (protein, UniProt Q8IWS0 2-365, looked up, variant R129A)
PHD finger protein 6: SSSVEQKKGPTRQRKCGFCKSNRDKECGQLLISENQKVAAHHKCMLFSSALVSSHSDNESLGGFSIEDVQKEIKRGTKLMCSLCHCPGATIGCDVKTCHRTYHYHCALHDKAQIREKPSQGIYMVYCAKHKKTAHNSEADLEESFNEHELEPSSPKSKKKSRKGRPRKTNFKGLSEDTRSTSSHGTDEMESSSYRDRSPHRSSPSDTRPKCGFCHVGEEENEARGKLHIFNAKKAAAHYKCMLFSSGTVQLTTTSRAEFGDFDIKTVLQEIKRGKRMKCTLCSQPGATIGCEIKACVKTYHYHCGVQDKAKYIENMSRGIYKLYCKNHSGNDERDEEDEERESKSRGKVEIDQQQLTQQQLNGN
- E3 ubiquitin ligase activity for H2BK120 [1]: indispensable for E3 ligase activity of PHF6
